{
  "source": "patent US11285285B2",
  "about": "“Systems and methods comprising a droplet delivery device and a breathing assist device for therapeutic treatment” (PNEUMA RESPIRATORY, INC., priority 2016, dated 2022)",
  "format_in_all_cases": "physicochemical",
  "key": {"[1]": {"assay": "Anderson Cascade Impactor testing of Albuterol sulfate aerosol from the droplet delivery device (Example B)", "conditions": "Albuterol 0.5%, 28.3 lpm, 10 actuations", "protocol": "Droplet size distribution and related functionality was evaluated for exemplary droplet delivery devices of the disclosure, including Anderson Cascade Impactor testing, total drug mass output rates, total drug respirable mass, delivery efficiencies and reproducibility.\nThe study was designed to evaluate device performance of a single Pneuma™ inhaler. A series of three (3) individual tests were conducted with a new disposable drug cartridge for each test. The testing platform utilizes an eight-stage nonviable Anderson Cascade Impactor (Thermo Fisher Scientific; Waltham, Mass.) equipped with a calibrated AALBORG model GFM47 mass flow meter (AALBORG Instruments and Controls; Orangeburg, N.Y.) for flow rate measurement.\nAt the conclusion of each test, the mouthpiece was rinsed with mobile phase and collected for HPLC analysis to determine the mass fraction of non-respirable aerosolized drug captured in the mouthpiece via inertial filtering. Following each test, impactor stage samples were extracted and recovered in solvent and analyzed for the active pharmaceutical ingredient (API) using a Dionex Ultimate 3000 nano-HPLC with UV detection (Thermo Scientific, Sunnyvale, Calif.).\nThe cascade impactor testing procedure involved fitting the mouthpiece into the Impactor USP throat with a mouthpiece connection seal. The vacuum pump supplying sample air flow to the cascade impactor was turned on and the pump control valves adjusted to supply 28.3 L/min total flow through the impactor and inhaler body during aerosol tests.\nThe device was connected to the impactor USB throat, turned on, and actuated ten (10) times for each test. At the conclusion of the test period, the device, impactor, and dilution air sources were turned off. The i mouthpiece was rinsed in order to extract drug, and all stages of the cascade impactor were rinsed with a quantity of appropriate solvent (HPLC mobile phase). Extracted samples were placed in labeled and sterile HPLC vials, capped, and analyzed for drug content via HPLC with UV detection. The mouthpiece was extracted of residual drug and analyzed for drug content via HPLC to measure mouthpiece drug deposition in relation to the total collected on the impactor stages.\nAll system flow rates and impactor sample flows were monitored throughout each test period. Following each test, the impactor slides were placed in labeled sterile Petri dishes, and impactor stages were extracted of drug using 2 ml of mobile phase applied with a calibrated micropipette. All extracted samples from the mouthpiece and impactor were placed in labeled sterile amber HPLC sample vials, and stored refrigerated at approximately 2° C. until HPLC analysis.\nImpactor collection stages for all tests were rinsed with DI water and ethanol, and air dried prior to each inhaler test trial to avoid contamination. A new inhaler drug cartridge was used for each of the three individual tests.\nAll drug content analysis was performed using a Dionex Ultimate 3000 nano-HPLC equipped with a Dionex UVD-3000 multi-wavelength UV/VIS Detector using a micro flow cell (75 um×10 mm path length, total analytical volume 44.2 nl). […] Total HPLC run time was 6 minutes per sample with approximately 5 minutes flush between each sample. Sample injection was performed with a 1 μl sample loop in full loop injection mode.\nBuffer formulation contains reverseosmosis filtered deionized water with 1.13 gr of sodium 1-hexanesulfonate (Alfa Aesar) in 1200 ml of water, with 2 ml glacial acetic acid (Acros Organics) added. The mobile phase solution was mixed and filtered through a 0.45 um filter membrane. The final mobile phase is a 60:40 dilution of Buffer:MEOH."}, "[2]": {"assay": "Insulin stability after aerosol generation, size exclusion chromatography (SEC)", "from_the_text": "Size Exclusion Chromatography (SEC): Alternately, to determine the stability of active agent after droplet generation, the generated stream of droplets including the active agent may be collected and SEC-HPLIC may be employed to monitor for any changes in large molecule aggregation and protein fragment content. Soluble protein aggregates and protein fragment content may be calculated by comparing respective peak area under the SEC-HPLC curve of dispensed protein solutions with controls (solutions remaining in the device reservoir).\nDrug solutions for testing include Enbrel, (ENBREL® single-use prefilled syringes in 25 mg (0.51 mL of a 50 mg/mL solution of etanercept), and insulin, (Humalog, 200 units/ml, 3 ml kwikpens)\nTo calculate and compare effects of droplet generation through an ejector mechanism of the disclosure, the total area under the curve of the UV signal at 280 nm versus elution time for controls is compared with the aerosolized samples, which is set to 100%.\nAerosol collection and SEC is performed in a similar fashion as for the Enbrel analysis and aerosol collection.\nFifty microliters of the collected aerosol spray is injected onto the SEC column for analysis, while 50 mcl of the Kwikpen insulin solution is injected onto the SEC column for control samples."}, "[3]": {"assay": "Gel electrophoresis of active agent after droplet generation", "from_the_text": "Gel Electrophoresis: To determine the stability of active agent after droplet generation, the generated stream of droplets including the active agent is collected and the molecular weight of the active agent is verified using gel electrophoresis."}, "[4]": {"assay": "Enbrel stability after aerosol generation, size exclusion chromatography (SEC)", "from_the_text": "Size Exclusion Chromatography (SEC): Alternately, to determine the stability of active agent after droplet generation, the generated stream of droplets including the active agent may be collected and […] may be employed to monitor for any changes in large molecule aggregation and protein fragment content. Soluble protein aggregates and protein fragment content may be calculated by comparing respective peak area under the SEC-HPLC curve of dispensed protein solutions with controls (solutions remaining in the device reservoir). Drug solutions for testing include Enbrel, (ENBREL® single-use prefilled syringes in 25 mg (0.51 mL of a 50 mg/mL solution of etanercept), and insulin, (Humalog, 200 units/ml, 3 ml […] is performed with a YarraTM 3 um SEC-2000 LC column 300×7.8 mm, SecurityGuard cartridge kit and SecurityGuard cartridges GFC-2000, 4×3 mm ID. Fifty microliters of Enbrel from the syringe (ENBREL® single-use prefilled syringes in 25 mg/0.51 mL of a 50 mg/mL solution of etanercept) is diluted (4:1) (4 parts, 200 mcl of the mobile phase buffer solution to 1 part, 50 mcl Enbrel from syringe). Fifty microliter of the diluted Enbrel is injected and separation was performed at a flow rate of 1.0 ml/min. The mobile phase buffer system included a PHOS. BUFF. SALINE. […] UV detection is performed at 280 nm. […] An ampule/cartridge is filled with either 0.20 ml of Enbrel® (50 mg/ml) diluted 4:1 (10 mg/ml)(4 parts (200 mcl) of PBS and 0.025% NaN3 and 1 part (50 mcl of Enbrel solution from the syringe). After 20 actuations and aerosolization, about 150 mcl of the aerosolized Enbrel solution is recovered and collected in the polypropylene tube located below the ejector mechanism. The control consists of the diluted Enbrel solution, 50 mcl of which is injected into the SEC column for analysis."}, "[5]": {"conditions": "average of Aerosolized S1 and S2"}, "[6]": {"conditions": "control (diluted Enbrel 10 mg/ml, not aerosolized), SEC UV 280 nm"}},
  "data": [
    {"substance": "Albuterol sulfate", "values": [
      {"measurement": "Fine Particles (<0.4 um)", "setting": "[1]; Anderson Cascade", "value": 31.0, "unit": "µg"},
      {"measurement": "Fine Particule Fraction (<0.4 um)", "setting": "[1]; Anderson Cascade", "value": 3.5, "unit": "%"},
      {"measurement": "droplets of an average diameter of less than about 4 μm", "setting": "[1]; Anderson Cascade", "value": "over 70%"},
      {"measurement": "Cum. % <", "setting": "[1]; FILTER", "value": 0.00, "unit": "%"},
      {"measurement": "Cum. % >", "setting": "[1]; FILTER", "value": 100.00, "unit": "%"}
    ]},
    {"substance": "Insulin: insulin, Humalog, 200 units/ml, 3 ml kwikpens", "values": [
      {"measurement": "ejected dose that is structurally unchanged", "setting": "[2]; aerosolized with test device", "value": 97.5, "unit": "%"},
      {"measurement": "Peak 3 area, Avg.", "setting": "[2]; [5]", "value": 2.4905},
      {"measurement": "Peak Area %, Peak 3", "setting": "[2]; control (Kwikpen insulin solution 200 U/ml, not aerosolized), SEC", "value": 0, "unit": "%"},
      {"measurement": "ejected dose that forms a fragment", "setting": "[2]; fragment which elutes at ~25 minutes", "value": 2.5, "unit": "%"}
    ]},
    {"substance": "adalimumab", "values": [
      {"measurement": "change in the electrophoretic mobility (molecular weight) of post-aerosol active agent versus control", "setting": "[3]", "value": "negligible change in the electrophoretic mobility"}
    ]},
    {"substance": "bevacizumab", "values": [
      {"measurement": "change in the electrophoretic mobility (molecular weight) of post-aerosol active agent versus control", "setting": "[3]", "value": "negligible change in the electrophoretic mobility"}
    ]},
    {"substance": "etanercept [Enbrel]", "values": [
      {"measurement": "Peak 4 area, Avg.", "setting": "[4]; [5]", "value": 0.3545},
      {"measurement": "Peak 5 area, Avg.", "setting": "[4]; [5]", "value": 4.2755},
      {"measurement": "Peak Area %, Peak 4", "setting": "[4]; [6]", "value": 0, "unit": "%"},
      {"measurement": "Peak Area %, Peak 5", "setting": "[4]; [6]", "value": 0, "unit": "%"},
      {"measurement": "dose that leads to formation of molecular fragments", "setting": "[4]; fragments with elution times of 13 and 25 minutes", "value": 4.6, "unit": "%"},
      {"measurement": "change in the electrophoretic mobility (molecular weight) of post-aerosol active agent versus control", "setting": "[3]", "value": "negligible change in the electrophoretic mobility"}
    ]}
  ]
}
